Test results taken from patent publication US5455181A, “Thrombin-inhibitory proteins from terrestrial leeches” (BASF Aktiengesellschaft, priority 1991, dated 1995).
No end group written: not given here.

Molecular target: T1, Thrombin (Homo sapiens, UniProt P00734)
T1 construct: purchased Boehringer Mannheim
Experiment: Determination of the inhibition of thrombin (Chromozym TH chromogenic substrate, absorption at 405 nm)
Type: biochemical
Details: periplasmic expression in E. coli DH 5α, fusion protein with maltose binding protein
Procedure: The purification of the proteins can be followed by a thrombin activity assay. It is expedient to use for this an optical assay in which a chromogenic substrate, for example Chromozym TH, is converted by thrombin. The fractions containing the novel proteins can be identified on addition to this optical assay by their thrombin-inhibiting action.
Thrombin (Boehringer Mannheim) was dissolved to a final concentration of 25 mU/ml in phosphate-buffered saline (PBS) ([…] NaCl; 0.2 g/1 […]; 0.144 g/l sodium phosphate; 0.2 g/l potassium phosphate, pH 7.5).
Chromozym TH (Boehringer Mannheim) was dissolved in 20 ml of H2 O/vial.
50 μl of thrombin solution and 100 μl of Chromozym plus 25 μl of sample or buffer were placed in the wells of a microtiter plate. The absorption at 405 nm was measured immediately thereafter at time 0 and after 30 minutes at 37° C.
The thrombin activity leads to liberation from the chromogenic substrate of a dye which absorbs at 405 nm. The inhibition of thrombin by a thrombin inhibitor is evident from a smaller increase in absorption at 405 nm and was quantified using a calibration plot.

concentration of the thrombin inhibitor: 1250 units per liter of culture medium
Substance: thrombin inhibitor: recombinant protein, SEQ ID NO: 23 position 1 to 57, expressed in E. coli as fusion protein with maltose binding protein (MFSTKMFVVFVAVCICVTQSIRFGMGKVPCPDGEVGYTCDCGEKICLYGQSCNDGQC; cysteine pairing not given here; also: expressed as fusion protein with maltose binding protein)
